According to PMC2193355:

B1: soluble α-DG (receptor)
chain: HWPSEPSEAVRDWENQLEASMHSVLSDLHEALPTVVGIPDGTAVVGRSFRVTIPTDLIGSSGEVIKVSTAGKEVLPSWLHWDPQSHTLEGLPLDTDKGVHYISVSAAQLDANGSHIPQTSSVFSIEVYPEDHSEPQSVRAASPDLGEAAASACAAEEPVTVLTVILDADLTKMTPKQRIDLLHRMQSFSEVELHNMKLVPVVNNRLFDMSAFMAGPGNAKKVVENGALLSWKLGCSLNQNSVPDIRGVEAPAREGTMSAQLGYPVVGWHIANKKPPLPKRIRRQIHATPTPVTAIGPPTTAIQEPPSRIVPTPTSPAIAPPTETMAPPVRDPVPGKPTVTTRTRGAIIQTPTLGPIQPTRVSDAGTVVSGQIRATVTIPGYVEPTAVATPPTTTTKKPRVSTPKPATPSTDSSATTTRRPTKKPRTPRPVPRVTTKAPITRLETASPPTRIRTTTSGVPRGGEPNQRPELKNHIDRVDAWVGTYFEVKIPSDTFYDKEDTTTDKLKLTLKLREQQLVGEKSWVQFNSNSQLMYGLPDSSHVGKHEYFMHATDKGGLSAVDAFEIHVHKRPQGDKAPARFKAKFVGDPAPVVNDIHKKIALVKKLAFAFGDRNCSTVTLQNITRG

Columns and labels:
[1] = target: purified α-dystroglycan (α-DG) (UniProt Q28685); assay: far-Western, overlay or dot blot
[2] = target: high affinity virus binders; assay: competitive inhibition binding assay
[3] = target: low affinity viral binders; assay: competitive inhibition binding assay

| Molecule | logs higher affinity than WE c2.2 [1] [logs] | concentration of soluble α-DG for 33% blocking of virus binding to α-DG cells [2] [nM] | concentration of soluble α-DG needed to block virus binding to α-DG cells [3] [nM] |
| --- | --- | --- | --- |
| LCMV WE c54 (purified virus; viral glycoprotein GP1/GP2) (complex) | 3 | – | – |
| B1 | – | 1 to 4 | > 400 |
